Assay results reported in paper PMC7515738, “Identification and characterization of hippuristanol-resistant mutants reveals eIF4A1 dependencies within mRNA 5′ leader regions”.

Assays:
Settings in all cases: tags: His6, single strand
eIF4A1 wt = eIF4A1 wt (UniProt P60842 1-406); assay: fluorescence polarization; no Hipp; FP: 1 uM recombinant protein, FAM-poly r(AG)8, vehicle (0.1% DMSO) or Hipp, 30 min; buffer, salt, pH and temperature not given in the material
eIF4A1 G361C = eIF4A1 G361C (UniProt P60842 1-406, G361C); assay: fluorescence polarization; no Hipp; similar to wt; FP: 1 uM recombinant protein, FAM-poly r(AG)8, vehicle (0.1% DMSO) or Hipp, 30 min; buffer, salt, pH and temperature not given in the material
Chain of eIF4A1 G361C (P60842 whole entry G361C): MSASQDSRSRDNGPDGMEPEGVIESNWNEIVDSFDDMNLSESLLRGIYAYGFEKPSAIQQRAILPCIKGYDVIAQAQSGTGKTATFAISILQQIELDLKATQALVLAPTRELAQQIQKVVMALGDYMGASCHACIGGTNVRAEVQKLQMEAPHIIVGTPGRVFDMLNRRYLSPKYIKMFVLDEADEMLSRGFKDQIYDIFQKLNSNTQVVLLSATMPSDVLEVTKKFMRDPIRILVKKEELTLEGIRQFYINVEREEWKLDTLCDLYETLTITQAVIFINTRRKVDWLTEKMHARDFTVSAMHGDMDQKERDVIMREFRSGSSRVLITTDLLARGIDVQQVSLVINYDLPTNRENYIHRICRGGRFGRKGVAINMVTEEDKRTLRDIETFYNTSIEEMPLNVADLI

eIF4A1 G370S = eIF4A1 G370S (UniProt P60842 1-406, G370S); assay: as above
Chain of eIF4A1 G370S (P60842 whole entry G370S): as the sequence (P60842 whole entry G361C) above, with C361G, G370S counted along it

Measured: binding result

Chain of eIF4A1 wt (P60842 whole entry): as the sequence (P60842 whole entry G361C) above, with C361G counted along it

B1: poly r(AG)8 (ssRNA)
RNA: AGAGAGAGAGAGAGAG
binds: eIF4A1 wt | eIF4A1 G361C | eIF4A1 G370S
